From the supplement of paper PMC9170038

Test system: MS2 coat protein
Test: apparent KD of MS2 coat protein; designed switch direction (-1 OFF switch, 1 ON switch): 1; higher = weaker reporter binding
In short: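 An oligonucleotide input, 200 uM small-molecule ligand, or no input was present during titration of SNAP-549-labelled MS2 coat protein, which was doubled from 0.7 or 1.5 nM to 3 µM. Designed RNA switches had been transcribed on Illumina chips by stalled E. coli RNA polymerase. Apparent KD per design is the median over clusters of curves fitted to normalised cluster fluorescence.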

[1] = Eterna round: R95, input ligand: FMN 200 uM
[2] = Eterna round: R95, input ligand: microRNA oligo, concentration not stated
[3] = Eterna round: R95, input ligand: none
[4] = input ligand: microRNA oligo, concentration not stated

Sequence | apparent KD of MS2 coat protein [1] | apparent KD of MS2 coat protein [2] | apparent KD of MS2 coat protein [3] | apparent KD of MS2 coat protein (input ligand: FMN 200 uM) | apparent KD of MS2 coat protein [4] | apparent KD of MS2 coat protein (input ligand: none)
AAGUGAUGGGUUAGUAACUGCUAGUAAGGACAUGAGGAUCACCCAUGUGAGUAACGAGCUUUUGCUCGUCUUAUAAA [JR_SHM208A_Sub020] (puzzle: Sensor for hsa-mir-208a) | 89.7 nM | 48.9 nM | 110 nM |  |  | 
GCUAGUAUUAUUGUCAACAUGAGGAUCACCCAUGUAUGUUGGCAGGAUAUCGUUUGCUUUGCAAACGAGAAGGGCUAAACUAGC [JL SSNG3 1.04] (Eterna round: R96, puzzle: Same State NG 3) |  |  |  | 61.2 nM | 145 nM | 231 nM
GGAGCCAAGGCAGGAUAUUCAUAUUAAUAACACAUGAGGAUCACCCAUGUGGCCAGAAGGCCAAGGGAGAAGGGCCAUGGCUCG [Xeonanis - 13 mod11] (Eterna round: R96, puzzle: Same State NG 2) |  |  |  | 22.1 nM | 65.4 nM | 159 nM
AGAAAACAUGAGGAUCACCCAUGUAUAGUGAAUACAGGAUAUCAUCGACGGAAUAGUUGAUGAGAAGGGUGAUCGC [Gebiatan] (puzzle: Same State 1) | 13.2 nM | 14.4 nM | 10.4 nM |  |  | 
AAAAUACAUGAGGAUCACCCAUGUGAAAAUAUGGGAGGAUAUACCGAAAAAAAAAAAAAGGUAGAAGGCCCAAAAA [SS! 1 MT 5] (Eterna round: R96, puzzle: Same State 1) |  |  |  | 39.5 nM | 31 nM | 34.6 nM
UGUUGUAUUACAGGAUAUCUAUUAGUUUGAUUUAGAGAAGGGUAUUCACAUGAGGAUCACCCAUGUAUAUACGAGGAAGUUGUG [JMF's solution 94] (Eterna round: R96, puzzle: Same State NG 1) |  |  |  |  | 41.4 nM | 
GUAGCAUACCGAGGAUAUUCAUUACAUGAGGAUCACCCAUGUUAGGCCAGCAUUAGCUGGCCUUGGGAGAAGGCGGAAUGCUAC [Xeonanis - 20 Mod53] (Eterna round: R96, puzzle: Same State NG 2) |  |  |  | 14 nM | 29.1 nM | 37.8 nM
UUGCUCGUGUGAGGAUAUGCAGCCGUUUCGGCUGCAGAAGGUACUAUAAUACAUGAGGAUCACCCAUGUCUCUGUUGUUUCGUG [salish99_SSNG1_r04_931] (Eterna round: R96, puzzle: Same State NG 1) |  |  |  | 27.3 nM | 21 nM | 27.5 nM
GGCUGCAAUUAUGAGGAUAUGUUCGGAUGAACAUGAGGAUCACCCAUGUGGCGAUAGCUAUCUGUGCAGAAGGUGUAGUGGUAGC [Edlexete] (Eterna round: R96, puzzle: Same State 2) |  |  |  | 57.9 nM | 90.7 nM | 186 nM
AGUCUACGGUGACGUAGACAGUAGUGCGUACAUGAGGAUCACCCAUGUCAUGUAAGAGUUACUUGUUCGUCUUGAAC [SENSOR #3] (puzzle: Sensor for hsa-mir-208a) | 20.4 nM | 16.9 nM | 20.2 nM |  |  | 
UUGGUGUAGAUACAGGAUAUGUUGCUUGUUACAUGAGGAUCACCCAUGUAUCUAUGAGAUUAAAUGCAGAAGGGUGCACAUCACU [salish99_ss2_r3_091] (puzzle: Same State 2) | 52.9 nM | 124 nM | 169 nM |  |  | 
CAGCGCUGUCGAGAGGAUAUGCGGUGAUAGACAUGAGGAUCACCCAUGUUAGCGAUAGCAUUACGGUAGAAGGCUCUACAGCUGC [Soteed - 12] (puzzle: Same State 2) | 29 nM | 73.3 nM | 103 nM |  |  | 
ACAGCCGGCACUGAGGAUAUUCAUAUUAAAACAUGAGGAUCACCCAUGUAGGCCAGAAGGCCUUGGGAGAAGGCAGGUCGGCUGA [Mat - Same State 2 - Mod of UCT - D64] (puzzle: Same State 2) | 18.8 nM | 229 nM | 391 nM |  |  | 
GCCAUCGCAUGAGGAUAUGGCACCGUUUCGGUGCCAGAAGGCAUGUCGAAUGACAUGAGGAUCACCCAUGUAGUAUAGAUGGCA [JL Fiskers NG1ss - 33 mod 10] (Eterna round: R96, puzzle: Same State NG 1) |  |  |  | 59 nM | 377 nM | 851 nM
GCUCGAUGAGAGUCCUACAUGAGGAUCACCCAUGUAUGUGGGCAGGAUAUCUACAUGCAGAAUGUAGAGAAGGGCCCGUCGAGC [SameState NG3 #57] (Eterna round: R96, puzzle: Same State NG 3) |  |  |  | 35.2 nM | 106 nM | 187 nM
GUGGAGGGUUGAGGAUAUUGAUUGCAUAUGUUUAACAUGAGGAUCACCCAUGUGGGUUGCGGUUUCGAGAAGGUAGGUUGCUGG [salish99_SSNG2_r04_042] (Eterna round: R96, puzzle: Same State NG 2) |  |  |  | 80.8 nM | 59.4 nM | 72.2 nM
UGAAUGAUGAUAGGAUAUACAUGAGGAAUCCUCGUAGAAGGAUCAUGACAUGAGGAUCACCCAUGUAGCGCUCCGUAGAGCGCA [JL SSNG1 1.20] (Eterna round: R96, puzzle: Same State NG 1) |  |  |  | 561 nM | 30.7 nM | 151 nM
GUACAUAUCGUAGGAUAUCACGUCGAAUAGACGUGAGAAGGACGGUCCCACAUGAAUAUUAAUACAUGAGGAUCACCCAUGUAC [MOD SSNG 1/18-A1 by Brourd] (Eterna round: R96, puzzle: Same State NG 1) |  |  |  | 92.5 nM | 41.8 nM | 43 nM
GCCAACGCAUGAGGAUAUGGCACCUUAUUGGUGCCAGAAGGUAUGUGUAUUCACAUGAGGAUCACCCAUGUAUUAUAGUUGGCA [Fiskers NG1ss - 17] (Eterna round: R96, puzzle: Same State NG 1) |  |  |  | 53.7 nM | 146 nM | 183 nM
UUGCUCGUGUGAGGAUAUGCCGCCGUUUCGGCUGCAGAAGGUACUCUUUUACAUGAGGAUCACCCAUGUCUCUGUUGUUUCGUG [salish99_SSNG1_r04_937] (Eterna round: R96, puzzle: Same State NG 1) |  |  |  | 252 nM | 96.4 nM | 148 nM
GCCGGCUGGUGAGGAUAUGGCGCCUUGUUGGUGCCAGAAGGCAUGUCUUUUGACAUGAGGAUCACCCAUGUGUUGUCGUUGGCG [salish99_SSNG1_r04_613] (Eterna round: R96, puzzle: Same State NG 1) |  |  |  | 221 nM | 72.3 nM | 47.8 nM
AAGCCUAAACGGCGAAAACGACAUGAGGAUCACCCAUGUACACAGGAUAUCAGCCUGCUACAGGCUGAGAAGGGUGAACCUAAA [Maisveon] (Eterna round: R96, puzzle: Same State NG 3) |  |  |  | 797 nM | 63.8 nM | 113 nM
UUGAAGAAUUAAGGAUAUUGAAUACAUAUGUUUAACAUGAGGAUCACCCAUGUGGGUUGCGGUAUCGAGAAGGUAAAUUACUAG [JL SSNG2 1.49] (Eterna round: R96, puzzle: Same State NG 2) |  |  |  | 112 nM | 76.3 nM | 119 nM
UGUUGUAUUACAGGAUAUCUAUUAGUAUUAUUUAGAGAAGGGUAUUCACAUGAGGAUCACCCAUGUAUAUACGAGGAAGUUGUG [JMF's solution 89] (Eterna round: R96, puzzle: Same State NG 1) |  |  |  |  | 34.8 nM | 
GCUCGACGUAUGGCCUACAUGAGGAUCACCCAUGUGACUGGGCAGGAUAUCUAAAUGCAGAAUGUAGAGAAGGGCCCGUCGAGC [SameState NG3 #49] (Eterna round: R96, puzzle: Same State NG 3) |  |  |  | 163 nM | 99.6 nM | 188 nM
GGAGCCGGCACUGAGGAUAUUCGUAUUAAAACAUGAGGAUCACCCAUGUAGGCCAGAAGGCCUUGGGAGAAGGCAGGUCGGCCCG [Bibimoar - 5] (puzzle: Same State 2) | 12.5 nM | 33.9 nM | 46.4 nM |  |  | 
AGAUCAUGACGAGGAUAUGCGACAUGAGGAUCACCCAUGUAUGUUGCAGGACGCGUACGUCCAAUGUAGAAGGCGUCGUGGUCA [JL SSNG2 1.05] (Eterna round: R96, puzzle: Same State NG 2) |  |  |  | 22.8 nM | 65.1 nM | 88.7 nM
